Consider three molecules from patent US20240368230A1, “CELL-PENETRATING PEPTIDES COMPRISING MULTIPLE 5-MER ALPHA-HELIX FRAGMENTS AND USES THEREOF” (ArtProBio Co., Ltd., priority 2023, published 2024).

Experiment [1] relates to HeLa cells. As to the kind of experiment: Flow cytometry of intracellular delivery of ZsGreen cargo. Type of experiment: cell-based. The settings on record: Hela cells, 10, 20 or 50 μM, 4 hours. The method, then:
Hela cells were inoculated onto a 24-well plate (10^5 cells/well) and cultured in a DMEM medium containing 10% FBS for 24 hours. After washing with PBS, the cells were treated with ZsGreen or the CPP22-ZsGreen fusion protein at 0, 10, 20 or 50 μM for 4 hours. Then, after washing the cells twice with PBS and incubating with trypsin (1 mg/mL) for 15 minutes, the peptides bound to the cell surface were removed. The cells were centrifuged at 1,200 rpm for 5 minutes, washed twice with PBS, and then suspended in a PBS buffer containing 10% non-enzymatic cell dissociation solution. The fluorescence intensity of the internalized peptide was measured using a BD LSR II flow cytometer (BD Biosciences, USA).
Background: Flow cytometry measures light scatter and fluorescence of single cells or particles in a stream.

Experiment [2] has as its system HeLa cells. Put plainly: Confocal microscopy of intracellular delivery of ZsGreen cargo. Type of experiment: cell-based. As to conditions: 50 μM, 30 minutes. The method, then: A DMEM medium containing 10% FBS was prepared on an 8-well Lab-Tek II chamber slide (Thermo Fisher Scientific, USA). Hela cells were dispensed in each well at a density of 10^4 cells/well and cultured for 24 hours. The cells were washed twice with PBS and then cultured for 30 minutes after replacing the medium with one containing 50 μM of the ZsGreen or the CPP22-ZsGreen fusion protein. The cells were washed with PBS, treated with DAPI, and then washed with PBS after reaction for 5 minutes (for observation of cell nuclei). Then, the stained cells were observed by confocal microscopy.

The target of experiment [3] is IIB RNA. Put plainly: Fluorescence anisotropy analysis of cRev with Cy3-labeled IIB RNA. Type of experiment: binding, HIV-1. The settings on record: Cy3-IIB RNA 250 nM, room temperature, pH 6.0; read-out: Kd (dissociation constant) for the interaction with IIB RNA. Here is the method: IIB RRE labeled with […] Cy3 was dissolved in a binding buffer (25 mM sodium phosphate, 50 mM NaCl, pH 6.0). The peptide (sample) of various concentrations was sequentially added to 250 nM RNA. The final concentration of the peptide was 600 nM. After the mixing, the sample was incubated for 1 minute. There was 1-minute incubation time between all the steps. All the experiments were performed at room temperature. The dissociation constant (Kd) was calculated using the Origin software.
In order to analyze the function of cRev, the cRev of Preparation Example 2 was mixed with Cy3-labeled IIB RNA and then fluorescence anisotropy analysis was performed.
On the technique in general: Fluorescence polarisation rises when a labelled molecule tumbles more slowly, as on binding a larger partner.

Experiment [4] deals with wild-type IIB (RRE IIB WT). As to the kind of experiment: EMSA with 32P-labeled wild-type IIB and mutant IIB. Type of experiment: binding, HIV-1. Here is the method:
A peptide (sample) and ^32P-labeled RNA were mixed with a binding buffer (10 mM HEPES (pH 7.5), 100 mM KCl, 1 mM MgCl2, 0.5 mM EDTA, 10% glycerol and […] yeast tRNA). After serially diluting the peptide with the binding buffer, RNA (10 pM) of the same volume was added. The resulting mixture was incubated at room temperature for 30 minutes and electrophoresis was conducted at 4° C. on 10% polyacrylamide gel. The […] was visualized with FLA-7000 Phosphor Imager (GE Healthcare Life Sciences, USA) and analyzed using the Multi Gauge software.
In order to analyze the binding affinity of cRev for IIB RNA, the /Rev of Preparation Example 1 or the cRev of Preparation Example 2 was mixed with ^32P-labeled wild-type IIB and ^32P-labeled mutant IIB, respectively, and analyzed by EMSA (electrophoretic mobility shift assay). The mutation of IIB is the mutation in the G46-C74 base pairs of wild-type IIB.
A general note: Mobility shift assays separate free from complexed probe on a gel.

B1: ZsGreen: green fluorescent protein, expressed from bacterial cells, used as a comparative example (protein)
chain: MAQSKHGLTKEMTMKYRMEGCVDGHKFVITGEGIGYPFKGKQAINLCVVEGGPLPFAEDILSAAFMYGNRVFTEYPQDIADYFKNSCPAGYTWDRSFLFEDGAVCICNADITVSVEENCMYHESKFYGVNFPADGPVMKKMTDNWEPSCEKIIPVPKQGILKGDVSMYLLLKDGGRLRCQFDTVYKAKSVPRKMPDWHFIQHKLTREDRSDAKNQKWHLTEHAIASGSALP
With B1, in experiment [1], the “intracellular delivery (flow cytometry)” value is “no intracellular delivery was observed”. Moreover, the “intracellular delivery (confocal microscopy)” value in experiment [2] was “not delivered into the cells”.

B2: CRGGDEDALKAARAIKFLYQSNPPPNPEGTRQARRNRRRRWRERQRQIHSASERIASTLGGMRM (protein)
chain: CRGGDEDALKAARAIKFLYQSNPPPNPEGTRQARRNRRRRWRERQRQIHSASERIASTLGGMRM
modifications: cyclized via intein; The peptide is circular.
notes: cyclic, oligomerization-defective Rev N-terminal domain protein made by intein-mediated cyclization
What is called Kd is a measure of binding affinity in units of concentration. In the case of B2, the Kd in experiment [3] worked out at 34 nM. Besides, the “binding affinity for wild-type IIB compared with /Rev” value in experiment [4] (wild-type IIB (RRE IIB WT)) is reported as “significantly higher binding affinity”. In experiment [4] (wild-type IIB versus mutant IIB), the “recognition of IIB RNA (EMSA)” value was “specifically recognizes IIB RNA”.

B3: CPP22-ZsGreen: fusion protein wherein CPP22 is fused with the ZsGreen protein (protein)
chain: GSHMASAAAQARRNAAAQARRNAAAQARRNAAAQARRNAAAQARRNAAAGSGSGSGSGPVATMAQSKHGLTKEMTMKYRMEGCVDGHKFVITGEGIGYPFKGKQAINLCVVEGGPLPFAEDILSAAFMYGNRVFTEYPQDIADYFKNSCPAGYTWDRSFLFEDGAVCICNADITVSVEENCMYHESKFYGVNFPADGPVMKKMTDNWEPSCEKIIPVPKQGILKGDVSMYLLLKDGGRLRCQFDTVYKAKSVPRKMPDWHFIQHKLTREDRSDAKNQKWHLTEHAIASGSALP
B3: the “intracellular delivery (flow cytometry)” value in experiment [1] is “delivered to and accumulated in the cells at a significantly high level”. In experiment [2], the “intracellular delivery (confocal microscopy)” value is “successfully delivered into and accumulated in the cells at a significant level”.
